Biological target: T1, MaNCP1-N (N-terminal C2H2 zinc finger cluster of MaNCP1) (Metarhizium acridum (CQMa102)) (UniProt E9E378)
T1 sequence: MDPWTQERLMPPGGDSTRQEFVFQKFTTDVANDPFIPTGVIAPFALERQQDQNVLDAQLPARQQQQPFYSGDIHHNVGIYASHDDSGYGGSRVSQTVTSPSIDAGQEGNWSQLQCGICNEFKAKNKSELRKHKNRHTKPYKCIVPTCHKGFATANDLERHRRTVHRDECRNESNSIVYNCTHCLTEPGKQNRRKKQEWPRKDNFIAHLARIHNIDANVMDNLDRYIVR
Experiment: EMSA
Conditions: Chemiluminescent EMSA kit (Beyotime), biotin-labeled probe; buffer, salt, pH and temperature not stated

AAAGATCAATAGGAGCTCAGACGACGAGATCGGATGGTGGGGTTCCGGGCAGGCGCAGGCGCGGCGGAAGTCGGCTAGCAGGAGCAACCCAATTGATAAGAGCTCAAGTG (double strand) [MaNmrA promoter probe]
binding: binds
